Common to all, as to assay: Kinase Profiling Assay
What all share (type): biochemical
Common to all, as to conditions: 100 μM

For one test, the target named is T1, IRAK4 (h) (Homo sapiens, UniProt Q9NWZ3).
T1 construct: purchased Millipore
T1 sequence (Q9NWZ3 1-460): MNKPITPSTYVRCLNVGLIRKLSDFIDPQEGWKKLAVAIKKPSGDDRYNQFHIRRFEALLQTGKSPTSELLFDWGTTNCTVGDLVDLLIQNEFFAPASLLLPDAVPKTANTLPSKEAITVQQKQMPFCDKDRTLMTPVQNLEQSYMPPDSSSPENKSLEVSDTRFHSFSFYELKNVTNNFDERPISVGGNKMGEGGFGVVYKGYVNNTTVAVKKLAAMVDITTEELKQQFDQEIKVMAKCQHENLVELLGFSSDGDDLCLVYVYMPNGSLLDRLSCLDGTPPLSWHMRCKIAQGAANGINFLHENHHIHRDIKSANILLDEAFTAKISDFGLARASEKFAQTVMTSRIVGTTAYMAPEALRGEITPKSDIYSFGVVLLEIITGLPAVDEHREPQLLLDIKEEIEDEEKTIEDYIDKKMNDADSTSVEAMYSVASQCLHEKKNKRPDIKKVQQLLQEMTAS
The method, boiled down: (§1)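 Specificity of MK2 inhibitory peptides is assessed against a panel of 266 human kinases. Kinase transfers a radiolabeled phosphate from ATP onto a positively charged substrate, which is trapped on a negatively charged filter and quantified by scintillation counting against full-activity control; duplicate determinations.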

The target of the next test is Pyk2 (h) (Homo sapiens, UniProt Q14289). The gist of the method:
as §1

The target of a further test is T2, CDK7/cyclinH/MAT1 (h) (Homo sapiens, UniProt P50613).
T2 construct: purchased Millipore
T2 sequence (P50613 whole entry): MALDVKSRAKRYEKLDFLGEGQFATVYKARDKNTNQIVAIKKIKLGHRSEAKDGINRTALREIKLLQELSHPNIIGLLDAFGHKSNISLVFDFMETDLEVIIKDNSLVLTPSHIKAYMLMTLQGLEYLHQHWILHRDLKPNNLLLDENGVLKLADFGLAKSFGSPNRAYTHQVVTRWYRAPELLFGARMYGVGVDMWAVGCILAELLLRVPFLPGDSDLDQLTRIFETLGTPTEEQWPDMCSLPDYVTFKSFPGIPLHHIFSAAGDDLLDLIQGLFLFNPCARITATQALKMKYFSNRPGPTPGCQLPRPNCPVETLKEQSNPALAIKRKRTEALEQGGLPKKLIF
T2 sequence (P51946 whole entry partner): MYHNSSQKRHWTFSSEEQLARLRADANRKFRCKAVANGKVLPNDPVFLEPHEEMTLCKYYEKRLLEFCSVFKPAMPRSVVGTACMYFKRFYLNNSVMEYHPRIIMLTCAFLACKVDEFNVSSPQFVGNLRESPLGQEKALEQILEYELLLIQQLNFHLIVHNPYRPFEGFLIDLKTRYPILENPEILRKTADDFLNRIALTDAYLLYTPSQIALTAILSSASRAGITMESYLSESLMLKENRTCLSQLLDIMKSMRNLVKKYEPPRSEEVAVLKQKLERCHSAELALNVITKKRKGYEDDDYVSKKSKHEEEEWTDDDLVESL
T2 sequence (P51948 whole entry partner): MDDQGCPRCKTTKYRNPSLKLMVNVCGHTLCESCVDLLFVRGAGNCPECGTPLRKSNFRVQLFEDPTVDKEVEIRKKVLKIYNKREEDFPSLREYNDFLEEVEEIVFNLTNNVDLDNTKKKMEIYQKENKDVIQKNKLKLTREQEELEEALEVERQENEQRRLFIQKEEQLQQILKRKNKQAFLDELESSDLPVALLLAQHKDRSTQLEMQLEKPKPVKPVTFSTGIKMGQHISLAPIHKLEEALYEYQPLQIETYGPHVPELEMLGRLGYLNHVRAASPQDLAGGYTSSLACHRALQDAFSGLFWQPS
The gist of the method:
as §1

A further test concerns the target T3, DCAMKL2 (h) (Homo sapiens, UniProt Q8N568).
T3 construct: purchased Millipore
T3 sequence (Q8N568 1-766): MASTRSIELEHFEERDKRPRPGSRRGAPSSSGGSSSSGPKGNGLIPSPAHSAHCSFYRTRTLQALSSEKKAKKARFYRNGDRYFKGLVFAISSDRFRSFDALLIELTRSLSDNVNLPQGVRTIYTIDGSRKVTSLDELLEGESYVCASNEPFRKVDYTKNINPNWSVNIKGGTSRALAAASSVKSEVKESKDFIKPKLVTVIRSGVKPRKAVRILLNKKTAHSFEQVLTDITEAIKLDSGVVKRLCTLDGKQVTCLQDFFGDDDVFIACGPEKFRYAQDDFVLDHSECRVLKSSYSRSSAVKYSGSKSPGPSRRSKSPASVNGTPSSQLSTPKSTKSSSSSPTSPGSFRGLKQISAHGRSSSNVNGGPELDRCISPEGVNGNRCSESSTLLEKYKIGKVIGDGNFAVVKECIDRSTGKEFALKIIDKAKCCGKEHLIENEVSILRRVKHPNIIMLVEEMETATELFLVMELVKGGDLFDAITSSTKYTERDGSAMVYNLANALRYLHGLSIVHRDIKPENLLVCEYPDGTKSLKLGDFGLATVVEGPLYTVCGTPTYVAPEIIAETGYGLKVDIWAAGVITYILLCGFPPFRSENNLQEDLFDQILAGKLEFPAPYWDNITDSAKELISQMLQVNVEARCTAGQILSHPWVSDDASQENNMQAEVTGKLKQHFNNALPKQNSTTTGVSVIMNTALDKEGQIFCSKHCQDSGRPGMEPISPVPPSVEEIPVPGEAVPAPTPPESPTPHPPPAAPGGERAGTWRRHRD
The gist of the method:
as §1

The target of the next test is MEK1 (h) (Homo sapiens, UniProt Q02750). The method, boiled down:
as §1

The next test addresses T4, TBK1 (h) (Homo sapiens, UniProt Q9UHD2).
T4 sequence (Q9UHD2 1-729): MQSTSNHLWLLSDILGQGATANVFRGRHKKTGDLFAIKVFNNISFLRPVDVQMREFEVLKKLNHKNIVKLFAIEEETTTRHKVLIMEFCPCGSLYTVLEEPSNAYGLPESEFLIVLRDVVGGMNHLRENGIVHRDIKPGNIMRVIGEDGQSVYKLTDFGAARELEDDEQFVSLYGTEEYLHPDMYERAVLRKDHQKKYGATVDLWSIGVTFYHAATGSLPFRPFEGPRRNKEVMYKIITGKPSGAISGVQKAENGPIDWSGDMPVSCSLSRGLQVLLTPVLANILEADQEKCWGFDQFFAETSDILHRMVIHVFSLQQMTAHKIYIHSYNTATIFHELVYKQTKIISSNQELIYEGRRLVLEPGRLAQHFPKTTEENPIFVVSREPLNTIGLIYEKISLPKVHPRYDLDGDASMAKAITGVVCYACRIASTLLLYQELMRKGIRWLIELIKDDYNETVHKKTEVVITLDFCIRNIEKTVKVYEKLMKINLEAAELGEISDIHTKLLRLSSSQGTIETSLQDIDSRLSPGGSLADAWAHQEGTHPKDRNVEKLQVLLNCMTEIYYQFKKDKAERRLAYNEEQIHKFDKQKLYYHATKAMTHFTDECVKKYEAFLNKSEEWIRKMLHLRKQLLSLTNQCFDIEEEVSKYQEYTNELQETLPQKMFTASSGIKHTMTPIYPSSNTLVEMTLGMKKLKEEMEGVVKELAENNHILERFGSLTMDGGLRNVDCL
The gist of the method:
as §1

A further test addresses T5, cKit (h) (Homo sapiens, UniProt P10721).
T5 construct: purchased Millipore
The method, boiled down: as §1

In a further test the target is Abl(T315I) (h) (Homo sapiens, UniProt P00519, T315I). The gist of the method: as §1
A further test addresses Yes (h) (Homo sapiens, UniProt P07947). The method, boiled down:
as §1

Sequence of Pyk2 (h) (Q14289 whole entry): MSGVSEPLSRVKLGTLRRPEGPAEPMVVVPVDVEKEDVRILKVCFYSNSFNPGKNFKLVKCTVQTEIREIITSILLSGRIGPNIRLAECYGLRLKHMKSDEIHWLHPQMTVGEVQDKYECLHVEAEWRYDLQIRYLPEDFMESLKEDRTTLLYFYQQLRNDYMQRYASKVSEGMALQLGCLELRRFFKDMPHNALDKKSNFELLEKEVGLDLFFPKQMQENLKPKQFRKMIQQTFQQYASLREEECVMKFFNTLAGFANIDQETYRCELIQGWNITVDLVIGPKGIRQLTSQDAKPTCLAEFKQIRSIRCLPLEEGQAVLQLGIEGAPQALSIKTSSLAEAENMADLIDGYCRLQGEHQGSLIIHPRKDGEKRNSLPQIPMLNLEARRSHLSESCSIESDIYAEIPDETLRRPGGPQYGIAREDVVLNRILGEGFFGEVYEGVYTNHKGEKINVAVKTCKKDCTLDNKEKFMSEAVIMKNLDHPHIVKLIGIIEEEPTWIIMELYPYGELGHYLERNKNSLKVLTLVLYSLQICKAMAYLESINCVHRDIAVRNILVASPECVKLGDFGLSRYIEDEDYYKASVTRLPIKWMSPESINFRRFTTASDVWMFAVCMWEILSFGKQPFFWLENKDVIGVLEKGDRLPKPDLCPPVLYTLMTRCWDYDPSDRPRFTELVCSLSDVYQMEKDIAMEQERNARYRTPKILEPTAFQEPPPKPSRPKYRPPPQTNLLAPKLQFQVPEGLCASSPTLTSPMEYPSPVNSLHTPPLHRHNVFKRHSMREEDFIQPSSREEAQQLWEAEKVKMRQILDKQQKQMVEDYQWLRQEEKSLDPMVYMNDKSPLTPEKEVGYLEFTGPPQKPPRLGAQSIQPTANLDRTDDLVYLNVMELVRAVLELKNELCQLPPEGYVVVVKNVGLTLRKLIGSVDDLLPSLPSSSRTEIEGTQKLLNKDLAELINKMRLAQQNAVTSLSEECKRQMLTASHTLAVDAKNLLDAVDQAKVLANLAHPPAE
Sequence of Yes (h) (P07947 whole entry): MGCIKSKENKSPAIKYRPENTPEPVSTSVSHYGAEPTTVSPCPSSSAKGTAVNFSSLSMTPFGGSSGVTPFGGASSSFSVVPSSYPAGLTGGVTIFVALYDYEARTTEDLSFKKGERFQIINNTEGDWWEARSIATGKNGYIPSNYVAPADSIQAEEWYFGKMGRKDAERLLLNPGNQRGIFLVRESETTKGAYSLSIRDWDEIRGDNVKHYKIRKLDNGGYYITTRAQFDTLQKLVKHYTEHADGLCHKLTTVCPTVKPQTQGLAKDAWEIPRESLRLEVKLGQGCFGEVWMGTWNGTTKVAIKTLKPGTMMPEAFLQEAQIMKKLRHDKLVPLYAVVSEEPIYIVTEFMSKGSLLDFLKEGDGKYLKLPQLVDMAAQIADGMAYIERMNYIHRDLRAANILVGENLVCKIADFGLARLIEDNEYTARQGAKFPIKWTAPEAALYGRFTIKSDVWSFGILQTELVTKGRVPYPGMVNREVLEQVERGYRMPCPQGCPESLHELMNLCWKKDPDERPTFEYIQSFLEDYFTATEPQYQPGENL

For FAKLAARLYRKALARQLGVAA [MMI-0300], the “% activity” value with IRAK4 (h) is 59%; in the test with Pyk2 (h), 47%; with CDK7/cyclinH/MAT1 (h) it was 65%; with DCAMKL2 (h), 81%; with MEK1 (h), 77%; with TBK1 (h) it was 37%. Also, the “% activity” value in the test with cKit (h) worked out at 53%; in the test with Abl(T315I) (h), 97%; in the test with Yes (h) it was 67%.
With KAFAKLAARLYRKALARQLGVAA [MMI-0400], the “% activity” value with IRAK4 (h) is 59%; with Pyk2 (h), 34%; in the test with CDK7/cyclinH/MAT1 (h), 47%; with DCAMKL2 (h) it was 70%; with MEK1 (h), 77%; with TBK1 (h) it was 39%. For the same sequence, the “% activity” value with cKit (h) is reported as 43%; with Yes (h), 14%.
“YARAAARQARAKALNRQLGVA (Mammalian) [MMI-0200]”: the “% activity” value was 110% with IRAK4 (h); 127% in the test with Pyk2 (h); 67% with CDK7/cyclinH/MAT1 (h); 131% with DCAMKL2 (h); 98% with TBK1 (h); 110% with cKit (h). The “% activity” value with Abl(T315I) (h) is recorded as 108%; in the test with Yes (h), 93%.
Regarding “HRRIKAWLKKIKALARQLGVAA (Mammalian) [MMI-0500]”, the “% activity” value with IRAK4 (h) amounted to 3%; with Pyk2 (h) it was 46%; with CDK7/cyclinH/MAT1 (h) it was 15%; in the test with DCAMKL2 (h), 56%; with MEK1 (h), 21%; with TBK1 (h) it was 16%. Moreover, the entries for the “% activity” value in the test with cKit (h) and in the test with Abl(T315I) (h) were 45% and 16%, respectively.

(Values after US10500249B2, “Compositions and methods for preventing or treating diseases, conditions, or processes characterized by aberrant fibroblast proliferation and extracellular matrix deposition” (MOERAE MATRIX, INC., priority 2014, dated 2019).)
